The chains are these.
B1: CPEB3 Ribozyme (parent)
chain: GGGGGCCACAGCAGAAGCGUUCACGUCGCGGCCCCUGUCAGAUUCUGGUGAAUCUGCGAAUUCUGCUGU

The variants in this data set derive from B1. As to the kind of experiment: self-cleavage, relative activity (ratio to wild type); higher = more cleavage; co-transcriptional.
In the case of AGGGGCCACAGCAGAAGCGUUCACGUCGCGGCCCCUGUCCGAUUCUGGUGAAUCUGCGAAUUCUGCUGU, the self-cleavage worked out at 0.028.

As for AGGGGCCACAGCAGAAGCGUUCACGUCGCGGCCCCUGUCUGAUUCUGGUGAAUCUGCGAAUUCUGCUGU, the self-cleavage is 0.0506.

Consider AGGGGCCACAGCGGAAGCGUUCACGUCGCGGCCCCUGUCAGAUUCUGGUGAAUCUGCGAAUUCUGCUGU, for which the self-cleavage worked out at 0.0336.

For the variant AGGGGCCACAGCCGAAGCGUUCACGUCGCGGCCCCUGUCAGAUUCUGGUGAAUCUGCGAAUUCUGCUGU, the self-cleavage came out at 0.0638.

For the variant AGGGGCCACAGCUGAAGCGUUCACGUCGCGGCCCCUGUCAGAUUCUGGUGAAUCUGCGAAUUCUGCUGU, the self-cleavage worked out at 0.0681.

As to AGGGGCCACAGCAGAAGCGUUCACGUCGCGGCCCCUGUCAGAUUCUGGUGUAUCUGCGAAUUCUGCUGU, the self-cleavage is 0.136.

Turning to AGGGGCCACAGCAGAAGCGUUCACGUCGCGGCCCCUGUCAGAUUCUGGUGAAUCUGCGAAUUCUGGUGU, the self-cleavage was 0.0767.

With AGGGGCCACCGCAGAAGCGUUCACGUCGCGGCCCCUGUCAGAUUCUGGUGAAUCUGCGAAUUCUGCUGU, the self-cleavage was 0.117.

AGGGGCCACAGCAGAAGCGUUCACGUCGCGGUCCCUGUCAGAUUCUGGUGAAUCUGCGAAUUCUGCUGU: the self-cleavage came out at 0.12.

Consider AGGGGCCACAGCAGAAGCGUUCACGUCGCGGACCCUGUCAGAUUCUGGUGAAUCUGCGAAUUCUGCUGU, for which the self-cleavage was 0.0486.

Regarding AGGGGCCACAGCAGAAGCGUUCACGUCGCGGGCCCUGUCAGAUUCUGGUGAAUCUGCGAAUUCUGCUGU, the self-cleavage was 0.0331.

AGGGGCCACAGCAGAAGCGUUCUCGUCGCGGCCCCUGUCAGAUUCUGGUGAAUCUGCGAAUUCUGCUGU: the self-cleavage amounted to 0.184.

As for AGGGGCCACAGCAGAAGGGUUCACGUCGCGGCCCCUGUCAGAUUCUGGUGAAUCUGCGAAUUCUGCUGU, the self-cleavage came to 0.0371.

Regarding AGGGGCCACAGCAGAAGUGUUCACGUCGCGGCCCCUGUCAGAUUCUGGUGAAUCUGCGAAUUCUGCUGU, the self-cleavage amounted to 0.0601.

Turning to AGGGGCCACAGCAGAAGAGUUCACGUCGCGGCCCCUGUCAGAUUCUGGUGAAUCUGCGAAUUCUGCUGU, the self-cleavage amounted to 0.0308.

Turning to AGGGGCCACAGCAGAAGCGUUCACGUAGCGGCCCCUGUCAGAUUCUGGUGAAUCUGCGAAUUCUGCUGU, the self-cleavage stood at 0.0748.

As for AGGGGCCACAGCAGAAGCGUUCACGUUGCGGCCCCUGUCAGAUUCUGGUGAAUCUGCGAAUUCUGCUGU, the self-cleavage amounted to 0.0438.

Consider AGCGGCCACAGCAGAAGCGUUCACGUCGCGGCCCCUGUCAGAUUCUGGUGAAUCUGCGAAUUCUGCUGU, for which the self-cleavage stood at 0.0286.

Regarding AGGGGCCACAGCAGAAGCGUUCACGUCGCGGCGCCUGUCAGAUUCUGGUGAAUCUGCGAAUUCUGCUGU, the self-cleavage was found to be 0.0474.

Take AGGGGCCACAGCAGAAGCGUUCACGUCGCGGCUCCUGUCAGAUUCUGGUGAAUCUGCGAAUUCUGCUGU: the self-cleavage amounted to 0.0123.

For the variant AGGGGCCACAGCAGAAGCGUUCACGUCGCGGCCCCUGUCAGAUUCUGGUGAAUCUGCGAAUUCUGCUGU, the self-cleavage stood at 0.104.

With AGGGGCCACAGCAGAAGCGUUUACGUCGCGGCCCCUGUCAGAUUCUGGUGAAUCUGCGAAUUCUGCUGU, the self-cleavage came out at 0.0977.

Regarding AGGGGCCACAGCAGAAGCGUUCACGUCGCGGCCCCUGUCAGAUUCUGGUGAAUCUGCGCAUUCUGCUGU, the self-cleavage came to 0.0603.

As to AGGGGCCACAGCAGAAGCGUUCACGUCGCGGCCCCUGUCAGAUUCUGGUGAAUCUGCGUAUUCUGCUGU, the self-cleavage is 0.0722.

For AGGGGCCACAGCAGAAGCGUUCACGUCGCGGCCCCUGUCAGAUUCUGGUGAAUCUGCGGAUUCUGCUGU, the self-cleavage came out at 0.167.

Regarding AGGGGCCACAGCAGAAGCGUUCACGUCGCGGCCCCUGUCAGAUUGUGGUGAAUCUGCGAAUUCUGCUGU, the self-cleavage was determined as 0.0789.

Regarding AGGGGCCACAGCAGAAGCGUUCACGUCGCGGCCCCUGUCAGAUUUUGGUGAAUCUGCGAAUUCUGCUGU, the self-cleavage is 0.0709.

On to AGGGGCCACAGCAGAAGCGUUCACGUCGCGGCCCCUGUCAGAUUCUGGUGAAUAUGCGAAUUCUGCUGU, for which the self-cleavage amounted to 0.0906.

In the case of AGGGGCCACAGCAGAAGCGUUCACGUCGCGGCCCCUGUCAGAUUCUGGUGAAUGUGCGAAUUCUGCUGU, the self-cleavage is 0.0801.

As for AGGGACCACAGCAGAAGCGUUCACGUCGCGGCCCCUGUCAGAUUCUGGUGAAUCUGCGAAUUCUGCUGU, the self-cleavage is 0.15.

As for AGGGUCCACAGCAGAAGCGUUCACGUCGCGGCCCCUGUCAGAUUCUGGUGAAUCUGCGAAUUCUGCUGU, the self-cleavage stood at 0.0571.

In the case of AGGGCCCACAGCAGAAGCGUUCACGUCGCGGCCCCUGUCAGAUUCUGGUGAAUCUGCGAAUUCUGCUGU, the self-cleavage is 0.0678.

Take AGGGGCCACAGCAGAAGCGUUCACGUCGCGGCCCCUGUCAGAUUCUGGUGAAUCUGCGACUUCUGCUGU: the self-cleavage turned out to be 0.0326.

On to AGGAGCCACAGCAGAAGCGUUCACGUCGCGGCCCCUGUCAGAUUCUGGUGAAUCUGCGAAUUCUGCUGU, for which the self-cleavage is 0.28.

As for AGGCGCCACAGCAGAAGCGUUCACGUCGCGGCCCCUGUCAGAUUCUGGUGAAUCUGCGAAUUCUGCUGU, the self-cleavage came out at 0.0471.

Regarding AGGGGCCACAGCAGAAGCGUUCACGUCGCGGCCCCUGUCAGGUUCUGGUGAAUCUGCGAAUUCUGCUGU, the self-cleavage came to 0.0249.

As for AGGGGCCAAAGCAGAAGCGUUCACGUCGCGGCCCCUGUCAGAUUCUGGUGAAUCUGCGAAUUCUGCUGU, the self-cleavage stood at 0.145.

AGGGGCCAUAGCAGAAGCGUUCACGUCGCGGCCCCUGUCAGAUUCUGGUGAAUCUGCGAAUUCUGCUGU: the self-cleavage was 0.19.

Take AGGGGCCAGAGCAGAAGCGUUCACGUCGCGGCCCCUGUCAGAUUCUGGUGAAUCUGCGAAUUCUGCUGU: the self-cleavage amounted to 0.0894.

AGGGGCCACAGCAGAAGCGUUCACGUCGCGGCCCUUGUCAGAUUCUGGUGAAUCUGCGAAUUCUGCUGU: the self-cleavage was determined as 0.0752.

With AGGGGCCACAGCAGAAGCGUUCACGUCGCGGCCCAUGUCAGAUUCUGGUGAAUCUGCGAAUUCUGCUGU, the self-cleavage turned out to be 0.0188.

AGGGGCCACAGCAGAAGCGUUCACGUCGUGGCCCCUGUCAGAUUCUGGUGAAUCUGCGAAUUCUGCUGU: the self-cleavage was 0.0423.

AGGGGCCACAGCAGAAGCGUUCACGUCGGGGCCCCUGUCAGAUUCUGGUGAAUCUGCGAAUUCUGCUGU: the self-cleavage was 0.0465.

Regarding AGGGGCCACAGCAGAAGCGUUCACCUCGCGGCCCCUGUCAGAUUCUGGUGAAUCUGCGAAUUCUGCUGU, the self-cleavage amounted to 0.0807.

Turning to AGGGGCCACAGCAGUAGCGUUCACGUCGCGGCCCCUGUCAGAUUCUGGUGAAUCUGCGAAUUCUGCUGU, the self-cleavage is 0.105.

On to AGGGGCCACAGCAGGAGCGUUCACGUCGCGGCCCCUGUCAGAUUCUGGUGAAUCUGCGAAUUCUGCUGU, for which the self-cleavage turned out to be 0.159.

As for AGGGGCCACAGCAGCAGCGUUCACGUCGCGGCCCCUGUCAGAUUCUGGUGAAUCUGCGAAUUCUGCUGU, the self-cleavage amounted to 0.113.

On to AGGGGCCUCAGCAGAAGCGUUCACGUCGCGGCCCCUGUCAGAUUCUGGUGAAUCUGCGAAUUCUGCUGU, for which the self-cleavage stood at 0.0637.

Consider AGGGGCCACAGCAGAAGCGUUCACGUCGCGGCCCCUGUCAGAUUCUGGUGAUUCUGCGAAUUCUGCUGU, for which the self-cleavage was 0.0595.

For AGGGGCCACAGCAGAAGCGUUCACGUCGCGGCCCCUGUCAGAUUCUGGUGACUCUGCGAAUUCUGCUGU, the self-cleavage is 0.113.

Regarding AGGGGCCACAGCAGAAGCGUUCACGUCGCGGCCCCUGUCAGAUUCUGGUGAGUCUGCGAAUUCUGCUGU, the self-cleavage was determined as 0.0619.

For AGGGGCCACAGCAGAAACGUUCACGUCGCGGCCCCUGUCAGAUUCUGGUGAAUCUGCGAAUUCUGCUGU, the self-cleavage was 0.0759.

With AGGGGCCACAGCAGAAUCGUUCACGUCGCGGCCCCUGUCAGAUUCUGGUGAAUCUGCGAAUUCUGCUGU, the self-cleavage is 0.047.

In the case of AGGGGCCACAGCAGAAGCGUUCACGUCGCGGCCCCUGUUAGAUUCUGGUGAAUCUGCGAAUUCUGCUGU, the self-cleavage is 0.0531.

Take AGGGGCGACAGCAGAAGCGUUCACGUCGCGGCCCCUGUCAGAUUCUGGUGAAUCUGCGAAUUCUGCUGU: the self-cleavage is 0.0966.

AGGGGCCACAGCAGAGGCGUUCACGUCGCGGCCCCUGUCAGAUUCUGGUGAAUCUGCGAAUUCUGCUGU: the self-cleavage came to 0.0235.

On to AGGGGCCACAGCAGAAGCGUUCACGUCGCGGCCCCUGUCAGAUUCUGGUGAAUCUGCGAAUUAUGCUGU, for which the self-cleavage was found to be 0.1.

AGGGGCCACAGCAGAAGCGUUCACGUCGCGGCCCCUGUCAGAUUCUGGUGAAUCUGCGAAUUGUGCUGU: the self-cleavage worked out at 0.0342.

Regarding AGGGGCCACAGCAGAAGCGUUCACGUCGCGGCCCCUGUCAGAUUCUGGUGAAUCUGCGAAUUUUGCUGU, the self-cleavage came out at 0.0639.

As for AGGGGCCACAUCAGAAGCGUUCACGUCGCGGCCCCUGUCAGAUUCUGGUGAAUCUGCGAAUUCUGCUGU, the self-cleavage was 0.0575.

Consider AGGGGCCACAACAGAAGCGUUCACGUCGCGGCCCCUGUCAGAUUCUGGUGAAUCUGCGAAUUCUGCUGU, for which the self-cleavage was found to be 0.136.

As for AGGGGCCACAGGAGAAGCGUUCACGUCGCGGCCCCUGUCAGAUUCUGGUGAAUCUGCGAAUUCUGCUGU, the self-cleavage is 0.0843.

On to AGGGGCCACAGAAGAAGCGUUCACGUCGCGGCCCCUGUCAGAUUCUGGUGAAUCUGCGAAUUCUGCUGU, for which the self-cleavage was 0.0768.

In the case of AGGGGCCACAGCAGAAGCGUUCACGUCGCGGCCACUGUCAGAUUCUGGUGAAUCUGCGAAUUCUGCUGU, the self-cleavage was determined as 0.111.

AGGGGCCACAGCAGAAGCGUUCACGUCGCGGCCGCUGUCAGAUUCUGGUGAAUCUGCGAAUUCUGCUGU: the self-cleavage amounted to 0.0238.

Consider AGGGGCCACAGCAGAAGCGUUCACGUCGCGGCCUCUGUCAGAUUCUGGUGAAUCUGCGAAUUCUGCUGU, for which the self-cleavage turned out to be 0.0949.

Regarding AGGGGCCACAGCAAAAGCGUUCACGUCGCGGCCCCUGUCAGAUUCUGGUGAAUCUGCGAAUUCUGCUGU, the self-cleavage was 0.0754.

As to AGGGGCCACAGCACAAGCGUUCACGUCGCGGCCCCUGUCAGAUUCUGGUGAAUCUGCGAAUUCUGCUGU, the self-cleavage was 0.0574.

For the variant AGGGGCCACAGCAGAAGCGUUCACGUCGCGGCCCCUGUCAGAUUCUGGUGAAUCUGGGAAUUCUGCUGU, the self-cleavage is 0.0693.

As to AGGGGCCACAGCAGAAGCGUUCACGUCGCGGCCCCUGUCAGAUUCUGGUGAAUCUGUGAAUUCUGCUGU, the self-cleavage is 0.0557.

For AGGGGCCACAGCAGAAGCGUUCACGUCGCGGCCCCUGUCAGAUUCUGGUGAAUCUGAGAAUUCUGCUGU, the self-cleavage is 0.0488.

For the variant AGGGGCCACAGCAGAAGCGUUCACGUCCCGGCCCCUGUCAGAUUCUGGUGAAUCUGCGAAUUCUGCUGU, the self-cleavage was determined as 0.0192.

AGGGGCCACAGCAGAAGCGUUCAAGUCGCGGCCCCUGUCAGAUUCUGGUGAAUCUGCGAAUUCUGCUGU: the self-cleavage was 0.0536.

Consider AGGGGCCACAGCAGAAGCGUUCAGGUCGCGGCCCCUGUCAGAUUCUGGUGAAUCUGCGAAUUCUGCUGU, for which the self-cleavage is 0.163.

Regarding AGGGGCCACAGCAGAAGCGUUCAUGUCGCGGCCCCUGUCAGAUUCUGGUGAAUCUGCGAAUUCUGCUGU, the self-cleavage was found to be 0.0626.

As for AGGGGACACAGCAGAAGCGUUCACGUCGCGGCCCCUGUCAGAUUCUGGUGAAUCUGCGAAUUCUGCUGU, the self-cleavage amounted to 0.0849.

As to AGGGGUCACAGCAGAAGCGUUCACGUCGCGGCCCCUGUCAGAUUCUGGUGAAUCUGCGAAUUCUGCUGU, the self-cleavage stood at 0.105.

As for AGGGGGCACAGCAGAAGCGUUCACGUCGCGGCCCCUGUCAGAUUCUGGUGAAUCUGCGAAUUCUGCUGU, the self-cleavage was 0.0647.

Source of the values: the RNAGym collection of RNA variant scans (doi:10.7554/elife.80360).
